One assay addresses T1, Pyk2 FERM I308E variant (UniProt Q14289 39-366).
T1 construct: domain: FERM domain; Printed once as '1308E' (a misprint of I308E); also called Pyk2 FERM variant 1308E
The assay can be described thus: capture sandwich ELISA with hybridoma supernatant. For orientation: ELISA stands for enzyme-linked immunosorbent assay.

Assay [1] concerns the target T2, HA-epitope tagged wild type FAK (UniProt Q05397 2-1052, limits assumed).
T2 construct: mature; also called full length FAK; tyrosine kinase FAK
The assay can be described thus: Western blot of lysates of transfected SF767 cells.

Assay [2] deals with T3, 3x HA-tagged FAK FERM domain (FAK residues R35-P362) (UniProt Q05397 35-362).
T3 construct: range 35-362
T3 sequence (looked up): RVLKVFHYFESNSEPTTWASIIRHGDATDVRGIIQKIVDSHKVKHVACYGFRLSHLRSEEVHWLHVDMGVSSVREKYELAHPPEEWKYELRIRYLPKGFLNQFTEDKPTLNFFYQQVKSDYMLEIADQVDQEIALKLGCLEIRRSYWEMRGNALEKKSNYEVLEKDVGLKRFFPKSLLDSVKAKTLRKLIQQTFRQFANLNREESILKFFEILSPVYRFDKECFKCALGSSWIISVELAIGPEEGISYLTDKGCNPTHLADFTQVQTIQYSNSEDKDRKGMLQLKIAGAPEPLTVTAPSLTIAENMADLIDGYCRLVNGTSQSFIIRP
Description: Western blot of lysates of transfected SF767 cells. (In general: Immunoblotting shows a protein as a band on a membrane.)

In a further assay the target is T4, Pyk2 FERM (FAKF3) (UniProt Q14289 39-260; Q05397 254-362).
T4 construct: range 39-260;range 254-362; A chimera made by splice overlap extension PCR; The range 39-260 of Pyk2 is derived from the printed limits of the FERM domain (R39-A366) and the F3 module (D261-A366); also called Pyk2 FERM domain containing the FAK FERM F3 domain
The assay can be described thus: Western blot of lysates of transfected SF767 cells.

The target in a further assay is T5, FLAG tagged Pyk2 I308E (UniProt Q14289 1-1009, limits assumed).
T5 construct: mature; also called Pyk2 with substitution of I308
Description: anti-FLAG immunoprecipitation and 12A10 immunoblot. The text has this: (§1) FIG. 2 (bottom panel) depicts a Western blot using anti-Pyk2 12A10 monoclonal antibody. SF767 cells were transfected with FLAG epitope tagged wild type (WT) Pyk2 or Pyk2 with the indicated amino acid substitution. Cells were lysed, Pyk2 was immunoprecipitated with anti-FLAG mAb, and immunoprecipitates immunoblotted with anti FLAG, anti-phosphotyrosine mAb pY20 or mAb 12A10. FIG. 2 (top) is a three dimensional model of the Pyk2 FERM with the locations of interacting residues, indicated by Arial font and non-interacting surfaces indicated by Times Roman font.
(§2) Immunoprecipitation of cleared lysates was performed as described elsewhere (Lipinski et al., Biochem. Biophys. Res. Commun., 349:939-947 (2006)). For immunoblotting, equal amounts of protein (10-20 μg) were electrophoresed on 8-16% gradient SDS-PAGE gels (Invitrogen, Carlsbad, Calif.) and transferred to nitrocellulose. Immunoblotting of transferred proteins was performed with the appropriate primary antibodies for 1 hour at room temperature and was visualized by enhanced chemiluminescence (Perkin Elmer Life Sciences, Boston, Mass.).

For another assay, the target named is T6, FLAG tagged Pyk2 R306E (UniProt Q14289 1-1009, limits assumed).
T6 construct: mature; also called Pyk2 with substitution of R306
The assay can be described thus: anti-FLAG immunoprecipitation and 12A10 immunoblot.
Source text: as §1, §2

A further assay deals with T7, FLAG tagged Pyk2 D346A (UniProt Q14289 1-1009, limits assumed).
T7 construct: mature; also called Pyk2 with substitution of D346
The assay can be described thus: anti-FLAG immunoprecipitation and 12A10 immunoblot.
Source text: as §1, §2

The target in the next assay is T8, FLAG tagged Pyk2 W104A (UniProt Q14289 1-1009, limits assumed).
T8 construct: mature; also called Pyk2 with substitution of W104
The assay can be described thus: anti-FLAG immunoprecipitation and 12A10 immunoblot.
Source text: as §1, §2

The target in another assay is T9, FLAG tagged Pyk2 Y135C (UniProt Q14289 1-1009, limits assumed).
T9 construct: mature; also called Pyk2 with substitution of Y135
Description: anti-FLAG immunoprecipitation and 12A10 immunoblot.
Source text: as §1, §2

T6 sequence (Q14289 whole entry R306E): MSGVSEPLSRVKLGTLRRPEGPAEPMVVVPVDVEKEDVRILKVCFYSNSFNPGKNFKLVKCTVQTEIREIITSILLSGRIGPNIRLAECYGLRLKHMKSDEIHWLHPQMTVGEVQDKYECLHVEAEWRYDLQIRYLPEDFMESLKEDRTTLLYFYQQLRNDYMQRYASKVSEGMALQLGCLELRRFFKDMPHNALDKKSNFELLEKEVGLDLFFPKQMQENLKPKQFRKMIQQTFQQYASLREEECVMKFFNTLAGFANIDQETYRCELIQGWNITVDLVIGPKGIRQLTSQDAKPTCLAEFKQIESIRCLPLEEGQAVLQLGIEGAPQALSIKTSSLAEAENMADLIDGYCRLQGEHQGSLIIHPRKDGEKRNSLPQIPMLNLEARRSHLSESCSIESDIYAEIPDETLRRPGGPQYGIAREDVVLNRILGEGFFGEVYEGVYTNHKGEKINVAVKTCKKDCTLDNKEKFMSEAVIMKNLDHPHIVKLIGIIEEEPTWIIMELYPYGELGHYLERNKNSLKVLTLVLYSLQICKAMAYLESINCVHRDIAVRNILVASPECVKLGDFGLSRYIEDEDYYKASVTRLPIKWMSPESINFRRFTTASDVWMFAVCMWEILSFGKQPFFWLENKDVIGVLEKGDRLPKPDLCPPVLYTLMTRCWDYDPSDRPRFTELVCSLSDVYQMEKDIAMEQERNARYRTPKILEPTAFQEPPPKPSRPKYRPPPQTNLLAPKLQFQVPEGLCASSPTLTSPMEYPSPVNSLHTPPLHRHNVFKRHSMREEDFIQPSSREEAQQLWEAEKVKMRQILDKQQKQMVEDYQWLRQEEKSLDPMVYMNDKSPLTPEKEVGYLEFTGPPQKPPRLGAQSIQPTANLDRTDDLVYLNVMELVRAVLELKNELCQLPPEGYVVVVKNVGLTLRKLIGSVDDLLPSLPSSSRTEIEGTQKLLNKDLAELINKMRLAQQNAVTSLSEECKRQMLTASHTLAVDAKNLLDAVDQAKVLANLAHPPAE
T1 sequence (Q14289 39-366 I308E): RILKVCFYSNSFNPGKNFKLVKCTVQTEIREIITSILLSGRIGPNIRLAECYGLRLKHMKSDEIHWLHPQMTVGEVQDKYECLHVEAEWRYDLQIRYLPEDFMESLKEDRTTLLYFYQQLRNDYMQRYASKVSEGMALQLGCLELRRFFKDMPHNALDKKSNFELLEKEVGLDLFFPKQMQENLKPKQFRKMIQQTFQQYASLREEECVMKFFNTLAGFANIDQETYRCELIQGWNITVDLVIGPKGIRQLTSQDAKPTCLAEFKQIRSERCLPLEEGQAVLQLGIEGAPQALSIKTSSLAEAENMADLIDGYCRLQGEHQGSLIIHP
T7 sequence (Q14289 whole entry D346A): as the sequence (Q14289 whole entry R306E) above, with E306R, D346A counted along it
T2 sequence (Q05397 2-1052 limits assumed): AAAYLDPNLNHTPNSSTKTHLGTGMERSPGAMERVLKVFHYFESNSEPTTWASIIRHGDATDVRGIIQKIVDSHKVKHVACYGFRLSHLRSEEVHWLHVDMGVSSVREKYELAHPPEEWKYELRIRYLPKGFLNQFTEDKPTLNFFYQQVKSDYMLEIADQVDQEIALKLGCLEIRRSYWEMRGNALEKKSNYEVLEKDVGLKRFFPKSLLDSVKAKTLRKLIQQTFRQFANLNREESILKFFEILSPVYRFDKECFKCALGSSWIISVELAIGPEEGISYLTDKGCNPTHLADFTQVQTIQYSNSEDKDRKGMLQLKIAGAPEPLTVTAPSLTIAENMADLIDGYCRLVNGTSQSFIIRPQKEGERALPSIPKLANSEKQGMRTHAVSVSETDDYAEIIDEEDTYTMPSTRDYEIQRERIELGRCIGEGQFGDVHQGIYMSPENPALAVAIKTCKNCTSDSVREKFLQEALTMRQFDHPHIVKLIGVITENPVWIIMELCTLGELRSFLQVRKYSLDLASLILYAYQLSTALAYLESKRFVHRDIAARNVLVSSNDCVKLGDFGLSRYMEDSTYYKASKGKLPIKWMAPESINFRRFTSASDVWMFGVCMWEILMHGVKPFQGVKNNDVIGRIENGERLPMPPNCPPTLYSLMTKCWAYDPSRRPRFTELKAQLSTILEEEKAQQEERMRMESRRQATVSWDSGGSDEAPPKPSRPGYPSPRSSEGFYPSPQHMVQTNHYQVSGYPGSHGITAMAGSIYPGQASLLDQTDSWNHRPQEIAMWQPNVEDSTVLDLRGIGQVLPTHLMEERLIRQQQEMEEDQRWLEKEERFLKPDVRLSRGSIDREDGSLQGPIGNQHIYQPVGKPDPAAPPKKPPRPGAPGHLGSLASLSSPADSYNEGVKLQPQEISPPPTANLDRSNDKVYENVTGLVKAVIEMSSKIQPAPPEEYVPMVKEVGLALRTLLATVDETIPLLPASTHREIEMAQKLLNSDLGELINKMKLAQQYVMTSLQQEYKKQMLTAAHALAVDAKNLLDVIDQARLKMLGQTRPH
T8 sequence (Q14289 whole entry W104A): as the sequence (Q14289 whole entry R306E) above, with W104A, E306R counted along it
T9 sequence (Q14289 whole entry Y135C): as the sequence (Q14289 whole entry R306E) above, with Y135C, E306R counted along it
T5 sequence (Q14289 whole entry I308E): as the sequence (Q14289 whole entry R306E) above, with E306R, I308E counted along it

B1: mouse monoclonal antibody 12A10 (antibody, V domains shown)
VH: EVKLQESGPELKKPGETVKISCKASGYTFTDYSMHWVMQSPGKGLKWMGWINTETGEPRYVDDFKGRFAFSLETSASTAYLQIINLKNEDTATYFCARWDHGHGGFTYWGQGTLVTVSA
VL: DIVLTQTTASLAVSLGQRATMSCRATESVDSYGKSFMYWFQQRAGQPPKLLIYLASNLESVVPPRFSGSGSRTDFSLTIDPVEADDAATYYCQQNNEDPFTFGSGTKLEIK
notes: Mouse IgG1 from hybridoma 12A10, raised against the His-tagged Pyk2 F3 module (D261-A366); Used as hybridoma supernatant in the ELISA screen and as an antibody in the Western blots; also called mAb 12A10; anti-Pyk2 12A10 monoclonal antibody
As for B1, the binding result (with Pyk2 FERM I308E variant; in assay [1]; in [2]; with Pyk2 FERM (FAKF3); in the assay with FLAG tagged Pyk2 I308E; with FLAG tagged Pyk2 R306E) was “no binding” in each case. In addition, the binding result with FLAG tagged Pyk2 D346A, with FLAG tagged Pyk2 W104A and with FLAG tagged Pyk2 Y135C was “binds” throughout.

Source of the values: patent US20110136232A1 (MAYO FOUNDATION FOR MEDICAL EDUCATION AND RESEARCH, published 2011).
